By Ki is commonly meant the equilibrium dissociation constant of an inhibitor or competing ligand from its target. By Kd is commonly meant the equilibrium constant for the complex coming apart. A word on the koff: it is the rate constant with which the complex falls apart. As a reminder, the kon is the second-order rate constant of association.

The target of assay [1] is T1, human c-fms, full length, on cells (human, UniProt P07333 20-972).
T1 construct: whole, on cells; also called CSF-1R
The assay is described as follows: inhibition of 125I-hCSF-1 binding to AML-5 cells, 4 C; competitor: 125I-hCSF-1. As to the method: (§1) A saturation radioligand binding experiment was performed in conjunction with each inhibition assay in order to determine both a KD and […] for hCSF-1 binding to c-fms expressed on the surface of AML-5 cells. Mixtures were set up in 96-well round-bottom microtiter plates with total volumes of 150 μl/well. All reagents were diluted in binding media containing 0.2% sodium azide and experiments were conducted at 4° C. to minimize potential receptor internalization and shedding.
(§2) For the saturation binding assay, ¹²⁵I-hCSF-1 was serially diluted 2-fold, starting at a concentration of ˜1.7 nM and going out 12 wells to a concentration of ˜1.5 pM. Nonspecific binding was measured at a single concentration of ¹²⁵I-hCSF-1 (˜80 pM, in triplicate) in the presence of a 1,000-fold molar excess of unlabeled hCSF-1, and assumed to be a linear function of the concentration of radiolabeled hCSF-1 present.

For assay [2], the target named is T1, human c-fms, full length, on cells. As to the kind of experiment: inhibition of 125I-CSF-1 binding to AML-5 cells; competitor: 125I-CSF-1 (summary table). As to the method: as §1
(§3) Both assays were incubated at 4° C. on a miniorbital shaker for 4 hours, the length of time needed to reach equilibrium as determined in time course experiments. Two 60 μl aliquots of each incubation mixture were transferred to chilled 400 μl polyethylene centrifuge tubes containing 200 μl phthalate oil and spun for 1.5 minutes in a 4° C. tabletop microfuge (Sorvall,) at 9615×g to separate cell associated ¹²⁵I-hCSF-1 from free ¹²⁵I-hCSF-1. The oil tubes were cut, and each cell pellet and supernatant collected in individual 12×75 mm glass tubes and loaded on a COBRA gamma counter (Packard Instrument Company) for cpm measurements. Cpm from duplicate aliquots taken from each well were averaged for analysis.
(§4) Mean K₁ values from 2 experiments were reported (see, TABLE 13).

Assay [3] has as its target T2, monomeric human c-fms (residues 1-512)-pHis (human, UniProt P07333 20-512).
T2 construct: Construct stated as residues 1-512; signal stated as amino acids 1-19 and left out; also called human c-fms (1-512).pHIS; monomeric c-fms
As to the kind of experiment: Biacore 3000, 25 C; mAb captured on goat anti-human IgG Fc, monomeric c-fms(1-512)-pHis analyte, 1:1 fit. As to the method: (§5) Anti-c-fms 1.2 or 1.2 SM at 0.25 μg/ml was injected over goat anti-human IgG, Fcγ in one flow cell for 2 minutes at 10 μl/min to obtain a surface density of ˜47 RUs. Another flow cell with goat anti-human IgG, Fcγ alone was used as a reference surface. Each assay started with ten cycles of buffer as the analyte to stabilize the signal. […] Each complex was allowed to associate for 2 minutes, and dissociate for 5 minutes. The surfaces were regenerated after each c-fms or buffer injection with a 30-second pulse of 10 mM glycine HCl, pH 1.5 at 100 μl/min, followed by a 30-second injection of buffer.
(§6) Other anti-c-fms antibodies were tested in a similar manner, but changes were made to the protocol to account for differences in binding characteristics.
(§7) Data was double referenced by subtracting the reference surface responses to remove bulk refractive index changes, and then subtracting the averaged buffer blank response to remove systematic artifacts from the experimental flow cells.

Assay [4] addresses T2, monomeric human c-fms (residues …). The assay is described as follows: Biacore, monomeric c-fms. How it is done:
(§8) The binding affinities of the somatic mutation corrected antibodies to monomeric c-fms protein were measured by surface plasmon resonance using a Biacore 3000 instrument.
(§9) The affinity of human c-fms (1-512). pHIS (Amgen) for the anti-c-fms mAbs was measured by Biacore. Experiments were conducted at 25° C. using a Biacore 3000 instrument (Biacore AB) equipped with a CM4 sensor chip. Sensor chips, amine coupling reagents (EDC (1-ethyl-3(3-dimethylaminopropyl)-carbodiimide hydrochloride), NHS (N-hydroxysuccinimide), and ethanolamine-HCl, pH 8.5), 10 mM sodium acetate, pH 5.5, HBS-EP (0.01 M HEPES pH 7.4, 0.15 M NaCl, 3 mM EDTA, 0.005% v/v Surfactant P20), and 10 mM glycine-HCl, pH 1.5 were purchased from Biacore AB. Bovine serum albumin (BSA, Bovuminar Standard Powder) was purchased from Serological Corporation. AffiniPure Goat Anti-Human IgG, Fcγ Fragment Specific was purchased from Jackson ImmunoResearch Laboratories.
as §6
A general note: In SPR one partner is held on a chip, and binding of the other changes the refractive index at the surface.

Assay [5] has the same target. The assay is described as follows: Biacore (summary table). As to the method:
as §5, §6, §7

The target is the same in assay [6]. The assay is described as follows: SPR, Biacore 3000, monomeric c-fms; reference: parent 2.360. As to the method: as §8, §9, §6
The target of assay [7] is T1, human c-fms, full length, on cells. The assay is described as follows: cell-based or functional assay.
Assay [8] concerns the target T3, cynomolgus monkey c-fms on primary bone marrow cells (cynomolgus monkey). The assay is described as follows: cell-based or functional assay.
Assay [9] deals with T1, human c-fms, full length, on cells. As to the kind of experiment: cell-based or functional assay. The source holds these as a separate data set.
The target in assay [10] is T3, cynomolgus monkey c-fms on primary bone …. The assay is described as follows: cell-based or functional assay. The source holds these as a separate data set.
The target in assay [11] is T1, human c-fms, full length, on cells. As to the kind of experiment: cell-based or functional assay. The source holds these as a separate data set.
The target of assay [12] is T3, cynomolgus monkey c-fms on primary bone …. As to the kind of experiment: cell-based or functional assay. This is another data set of the same source.
For assay [13], the target named is T1, human c-fms, full length, on cells. As to the kind of experiment: cell-based or functional assay. The source holds these as a separate data set.
Assay [14] has as its target T2, monomeric human c-fms (residues …). As to the kind of experiment: SPR, Biacore 3000, monomeric c-fms; reference: parent 1.109. As to the method:
as §8, §9, §6

In assay [15] the target is T1, human c-fms, full length, on cells. As to the kind of experiment: saturation radioligand binding on AML-5 cells, 4 C; 125I-labelled hCSF-1, saturation binding, 4 C. How it is done:
as §2, §3, §4

Assay [16] shares this target. The assay is described as follows: inhibition of 125I-hCSF-1 binding to AML-5 cells, 4 C; unlabeled hCSF-1, competitive inhibition of 125I-hCSF-1, 4 C. How it is done: as §1, §3, §4

T1 sequence (P07333 20-972): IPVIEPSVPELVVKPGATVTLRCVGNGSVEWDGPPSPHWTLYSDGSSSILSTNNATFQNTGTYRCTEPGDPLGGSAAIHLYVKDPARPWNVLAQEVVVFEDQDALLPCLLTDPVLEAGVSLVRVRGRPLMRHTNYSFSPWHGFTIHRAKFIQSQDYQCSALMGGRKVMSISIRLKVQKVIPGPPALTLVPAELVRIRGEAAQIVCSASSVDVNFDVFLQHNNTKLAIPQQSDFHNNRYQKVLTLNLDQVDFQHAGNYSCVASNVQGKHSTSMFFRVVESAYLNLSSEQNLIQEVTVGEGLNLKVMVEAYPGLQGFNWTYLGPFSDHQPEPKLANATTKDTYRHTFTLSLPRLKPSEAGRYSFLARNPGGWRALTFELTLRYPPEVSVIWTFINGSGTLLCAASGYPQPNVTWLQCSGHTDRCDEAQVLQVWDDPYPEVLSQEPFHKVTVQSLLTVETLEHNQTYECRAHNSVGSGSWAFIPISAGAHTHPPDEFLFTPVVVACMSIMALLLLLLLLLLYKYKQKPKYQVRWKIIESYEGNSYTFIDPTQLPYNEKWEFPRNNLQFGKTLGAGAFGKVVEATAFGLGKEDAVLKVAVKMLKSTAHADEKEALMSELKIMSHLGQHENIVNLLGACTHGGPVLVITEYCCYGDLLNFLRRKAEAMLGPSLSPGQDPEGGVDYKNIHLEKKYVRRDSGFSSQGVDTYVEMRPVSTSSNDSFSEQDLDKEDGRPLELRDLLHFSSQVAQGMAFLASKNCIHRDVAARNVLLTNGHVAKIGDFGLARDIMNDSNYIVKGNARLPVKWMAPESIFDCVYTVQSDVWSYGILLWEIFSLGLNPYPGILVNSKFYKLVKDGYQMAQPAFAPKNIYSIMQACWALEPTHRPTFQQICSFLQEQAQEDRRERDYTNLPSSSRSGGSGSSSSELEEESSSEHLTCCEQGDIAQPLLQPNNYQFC
T2 sequence (P07333 20-512): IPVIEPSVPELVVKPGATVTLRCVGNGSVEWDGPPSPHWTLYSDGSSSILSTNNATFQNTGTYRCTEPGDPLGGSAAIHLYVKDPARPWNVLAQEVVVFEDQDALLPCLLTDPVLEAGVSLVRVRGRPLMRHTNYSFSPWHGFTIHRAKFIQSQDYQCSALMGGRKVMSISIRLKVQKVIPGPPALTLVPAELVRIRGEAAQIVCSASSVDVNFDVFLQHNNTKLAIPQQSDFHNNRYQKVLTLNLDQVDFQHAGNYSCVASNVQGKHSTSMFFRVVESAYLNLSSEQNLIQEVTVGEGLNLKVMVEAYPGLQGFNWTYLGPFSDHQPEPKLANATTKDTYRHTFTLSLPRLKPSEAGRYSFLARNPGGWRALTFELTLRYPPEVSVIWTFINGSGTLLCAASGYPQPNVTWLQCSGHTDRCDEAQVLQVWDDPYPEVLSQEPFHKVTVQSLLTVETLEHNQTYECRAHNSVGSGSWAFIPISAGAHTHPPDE

B1: anti-c-fms IgG2 clone 2.360 SM (somatic mutation cured) (antibody, V domains shown)
VH: QVQLVQSGAEVKKPGASVKVSCKVSGYTLTELSMHWVRQAPGKGLEWMGGFDPEDGETIYAQKFQGRVTMTEDTSTDTAYMELSSLRSEDTAVYYCATGVMITFGGVIVGHSYYGMDVWGQGTTVTVSS
VL: DIQMTQSPSSLSASVGDRVTITCRASQGINNYLAWYQQKPGKVPKLLIYVASTLQSGVPSRFSGSGSGTDFTLTISSLQPEDVATYYCQKYNSGPFTFGPGTKVDIKR
notes: Recombinant IgG2 kappa; heavy chain Val-79 to Ala, light chain Gln-45 to Lys
On to B1, for which the Ki in [1] and in assay [2] was roughly 0.9 nM in each case. Also, the Kd in [3], in [4] and in [5] was 1.2 nM throughout. For the same molecule, the koff in assay [3] came to 0.000955 s⁻¹. The molecule further registered a kon in assay [3] of 794000 M⁻¹ s⁻¹. In addition, in assay [6], the “fold loss of affinity against the parent antibody” value was 2 fold. Further, in assay [7], the “AML-5 proliferation assay, loss in potency relative to the parent IgG2 antibody” value was determined as 10 fold.

B2: anti-c-fms IgG2 clone 1.2 SM (somatic mutation cured) (antibody, V domains shown)
VH: QVQLVQSGAEVKKPGASVKVSCKASGYTFTSYGISWVRQAPGQGLEWMGWISAYNGNTNYAQKLQGRVTMTTDTSTSTAYMELRSLRSDDTAVYYCARESWFGEVFFDYWGQGTLVTVSS
VL: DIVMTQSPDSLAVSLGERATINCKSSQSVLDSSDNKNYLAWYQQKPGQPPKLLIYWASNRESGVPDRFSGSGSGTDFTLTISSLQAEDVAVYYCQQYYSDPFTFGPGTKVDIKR
notes: Recombinant IgG2 kappa; light chain Ser-78 reverted to germline Thr; also called 1.2.1 SM; antibody 1.2 SM
Molecule B2 registered an inhibition constant (Ki) in assay [1] of 0.0115 nM. Besides, in assay [2], the inhibitory constant (Ki) was found to be 0.0115 nM. In assay [3], this molecule returned a Kd of 0.548 nM, a koff of 0.00199 s⁻¹ and an on-rate constant (kon) of 3.62e+06 M⁻¹ s⁻¹. Further, in assay [8], the “IC50 of 1.2 SM in the presence of hCSF-1, cynomolgus bone marrow monocytic cell proliferation, Average” value came out at 0.0327 nM; the “IC50 of 1.2 SM in the presence of hCSF-1, cynomolgus bone marrow monocytic cell proliferation, Expt. 1” value turned out to be 0.0425 nM; the “IC50 of 1.2 SM in the presence of hCSF-1, cynomolgus bone marrow monocytic cell proliferation, Expt. 2” value was determined as 0.026 nM; the “IC50 of 1.2 SM in the presence of hCSF-1, cynomolgus bone marrow monocytic cell proliferation, Expt. 3” value is 0.0229 nM. Further, in assay [9], the “IC50 of 1.2 SM in the presence of hCSF-1, human bone marrow monocytic cell proliferation, Average” value amounted to 0.0155 nM; the “IC50 of 1.2 SM in the presence of hCSF-1, human bone marrow monocytic cell proliferation, Expt. 1” value was 0.0155 nM; the “IC50 of 1.2 SM in the presence of hCSF-1, human bone marrow monocytic cell proliferation, Expt. 2” value was determined as 0.0201 nM; the “IC50 of 1.2 SM in the presence of hCSF-1, human bone marrow monocytic cell proliferation, Expt. 3” value was 0.0109 nM. In [10], the “Cynomolgus bone marrow bioassay IC50” value was determined as 0.081 nM. Moreover, in assay [11], the “AML-5 bioassay IC50” value is 0.012 nM. In assay [4], the Kd amounted to 0.548 nM. Moreover, binding in assay [5] was put at a Kd of 0.548 nM. In assay [7], the “antibody concentration that prevented CSF-1-induced pTyr/c-fms, 293T/c-fms cells” value is no less than 0.1 µg/ml. The “Cynomolgus Bone Marrow Proliferation IC50” value in assay [12] came out at 0.081 nM. For the same molecule, the “AML-5 proliferation IC50” value in [13] is 0.012 nM.

B3: anti-c-fms IgG2 clone 1.109 SM (somatic mutation cured) (antibody, V domains shown)
VH: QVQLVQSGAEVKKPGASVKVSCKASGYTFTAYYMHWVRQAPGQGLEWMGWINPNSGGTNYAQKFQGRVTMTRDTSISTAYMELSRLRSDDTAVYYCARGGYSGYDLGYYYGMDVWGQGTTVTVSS
VL: DIQMTQSPSSLSASVGDRVTITCQASQDISNFLDWYQQKPGKAPKLLIYDASDLDPGVPSRFSGSGSGTDFTFTISSLQPEDIATYYCQQYVSLPLTFGGGTKVEIKR
notes: Recombinant IgG2 kappa; light chain Asn-28 to Asp and Asn-45 to Lys
Turning to B3, the Ki in [1] and in [2] was 0.0097 nM throughout. Further, the Kd in assay [3], in assay [4] and in assay [5] was 0.102 nM each time. In [3], this molecule displayed a koff of 0.000271 s⁻¹. This molecule also yielded a kon in assay [3] of 2.66e+06 M⁻¹ s⁻¹. For the same molecule, in assay [10], the “Cynomolgus bone marrow bioassay IC50” value turned out to be 0.023 nM. Moreover, the “antibody concentration that prevented CSF-1-induced pTyr/c-fms, 293T/c-fms cells” value in [7] is no less than 0.1 µg/ml. Also, the “fold loss of affinity against the parent antibody” value in assay [14] is 2 fold. Further, the “Cynomolgus Bone Marrow Proliferation IC50” value in [12] amounted to 0.023 nM.

B4: recombinant human CSF-1 (ligand, UniProt P09603 33-190, looked up)
chain: EEVSEYCSHMIGSGHLQSLQRLIDSQMETSCQITFEFVDQEQLKDPVCYLKKAFLLVQDIMEDTMRFRDNTPNAIAIVQLQELSLRLKSCFTKDYEEHDKACVRTFYETPLQLLEKVKNVFNETKNLLDKDWNIFSKNCNNSFAECSSQDVVTKPDCN
notes: also called hCSF-1
Consider B4, for which, in assay [15], the affinity, expressed as Kd, was 0.046 nM. This molecule displayed a Ki in assay [16] of 0.0178 nM.

These data come from patent US20090155164A1 (Amgen, published 2009).
